{"source": "patent US20230265187A1", "about": "(published 2023)", "binders": {"B1": {"name": "43586p2.B03 (scFv, V domains shown)", "VH": "EVQLLESGGGWVQPGGSLRLSCAASGFTFIDYWMSWVRQAPGKGLEWVSSISWIGDTTFYADSVKGRFTISRDSSLNTVYLQMNSLRAEDTAVYYCAKHWTVYQYGMDVWGQGTTVTVSS", "VL": "QSVLTQPPSASGTPGQRVTISCSGGSSKIGSKYVHWYQQLPGTAPKLLIYKDDQRPSGVPDRFSGSKSGTSASLAISGLQSEDEADYYCAAWDDRVNAWVFGGGTKLTVL"}, "B2": {"name": "43586p1.2.A4 (scFv, V domains shown)", "VH": "EVQLLESGGGLVQPGGSLRLSCAASGFTVSDHHMSWVRQAPGKGLEWVSGIDPGGKTYYVDSVKGRFTISRDNSKNTLYLQMNSLRAEDTAVYYCAREQYDWNDDMDVWGQGTTVTVSS", "VL": "QSVLTQPPSASGTPGQRVTISCSGSRSNVGDHYVSWYQQFPGTAPKLLIYANYQRPSGVPDRFSGSKSGTSASLAISGLQSEDEADHYCASWDASLNVWVFGGGTKLTVL"}, "B3": {"name": "43645p1.B8 (scFv, V domains shown)", "VH": "EVQLLESGGGLVQPGGSLRLSCAASGFTFSDFWMSWVRQAPGKGLEWVSSIINIQTYDYATYYADSVKGRFTISRDNSKNTLYLQMNSLRAEDTAIYYCAKDVAPGLPGGMDVWGQGTTVTVSS", "VL": "QSVLTQPPSASGTPGQRVTISCSGSNSNIRNNFVSWYQHLPGMAPKLLIYGNSQRPSGVPDRFSGSKSGTSASLAISGLQSEDEADYYCTSWDFSVNGWVFGGGTKLTVL"}, "B4": {"name": "43586p2.F10 (scFv, V domains shown)", "VH": "VESGGGLVQPGGSLRLSCAASGFTVSDHYVSWVRQAPGKGLEWVSTSSSTNWNDGRTYYADSVKGRFTISRDNSENTLYLQMNSLRAEDTAVYYCAKDQYKGNDYYYYGMDVWGQGTTVTVSS", "VL": "QSVLTQPPSASGTPGQRVTISCSASNSYIGTKYFYWYQQLPGTAPKLLIYLDSQRPSGVPDRFSGSKSGTSVSLAISGLQSEDEADYYCAFWDDHLHGWVFGGGTKLTVL"}, "B5": {"name": "43645p1.F12 (scFv, V domains shown)", "VH": "EVQLLESGGGLVQPGGSLRLSCAASGFTFSDYWMSWVRQAPGKGLEWVSSINWNGDNTYYYADSVKGRFTISRDNSKNTLYLQMNSLRAEDTAVYYCAKSHTVLQYGMDVWGQGTTVTVSS", "VL": "QSVLTQPPSASGTPGQRVTISCSGSSSNIQSNYVYWYQQLPGTAPKLLIYGNHQRPSGVPDRFSGSKSDTSASLAISGLQSEDEADYYCATWDASLNVWVFGGGTKLTVL"}, "B6": {"name": "43586p2.B05 (scFv, V domains shown)", "VH": "EVQLLESGGGLVQPGGSLRLSCAASGFTFSDYYMNWVRQAPGKGLEYVASINWNGGTTYYADSVKGRFTISRDNSKNTLYLQMSSLRAEDTAVYYCAKDQNWNFYYGMDVWGQGTTVTVSS", "VL": "QSVLTQPPSASGTPGQRVTISCSGGSSNIGNNFVSWYQQLPGTAPKLLIYNEIKRPSGVPDRFSASKSGTSASLAISGLQSEDEADYYCASWDGSLRGWVFGGGTKLTVL"}, "B7": {"name": "43586p2.C01 (scFv, V domains shown)", "VH": "B6 VH with S84N", "VL": "B6 VL"}}, "key": {"[1]": {"biological_target": "T1, human TIGIT on Jurkat cells (TIGIT/NFAT reporter Jurkat cells, BPS Bioscience #60538); Promega TIGIT Effector … (human, UniProt Q495A1 22-244)", "T1 construct": "whole, on cells; Same protein on two bought Jurkat lines (flow cytometry: BPS; bioassay: Promega); also called hu TIGIT cells; cells expressing human TIGIT", "T1 sequence (looked up)": "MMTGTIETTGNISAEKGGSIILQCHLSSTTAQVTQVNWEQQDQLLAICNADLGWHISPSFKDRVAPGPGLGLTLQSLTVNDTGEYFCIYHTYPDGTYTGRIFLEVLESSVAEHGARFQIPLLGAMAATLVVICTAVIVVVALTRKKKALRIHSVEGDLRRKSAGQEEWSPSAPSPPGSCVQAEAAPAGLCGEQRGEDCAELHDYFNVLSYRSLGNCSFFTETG", "assay": "flow cytometry, TIGIT/NFAT Jurkat cells, 10 ug/ml"}, "[2]": {"biological_target": "T2, his-tagged murine TIGIT (Acro Biosystems #TIT-M52E6) (murine, UniProt P86176 29-148, limits assumed)", "T2 construct": "Bought protein; also called mouse his-tagged TIGIT; not shown: his tag", "T2 sequence (looked up)": "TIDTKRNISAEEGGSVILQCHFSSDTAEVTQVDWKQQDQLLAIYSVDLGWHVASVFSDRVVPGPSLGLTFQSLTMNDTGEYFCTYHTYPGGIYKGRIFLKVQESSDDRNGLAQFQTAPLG", "assay": "ELISA, coated His-TIGIT, 1 ug/ml"}, "[3]": {"biological_target": "T3, his-tagged human TIGIT (Acro Biosystems #TIT-H52H3) (human, UniProt Q495A1 22-141)", "T3 construct": "Bought protein; also called His-tagged-TIGIT (human); not shown: his tag", "T3 sequence (looked up)": "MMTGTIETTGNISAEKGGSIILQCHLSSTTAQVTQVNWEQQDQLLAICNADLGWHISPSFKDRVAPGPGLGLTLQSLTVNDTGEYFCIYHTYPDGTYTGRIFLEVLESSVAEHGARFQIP", "assay": "ELISA, coated His-TIGIT, 1 ug/ml"}, "[4]": {"biological_target": "T4, His-tagged cynomolgus monkey TIGIT (Acro Biosystems #TIT-05223) (cynomolgus monkey, UniProt A0A7N9I9V4 89-209)", "T4 construct": "Bought protein; also called cyno TIGIT; cynomolgus TIGIT; not shown: His tag", "T4 sequence (A0A7N9I9V4 entry or part of it)": "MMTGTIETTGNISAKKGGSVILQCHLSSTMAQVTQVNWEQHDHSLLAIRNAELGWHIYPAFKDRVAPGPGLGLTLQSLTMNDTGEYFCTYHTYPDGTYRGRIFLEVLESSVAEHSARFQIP", "assay": "ELISA, coated His-TIGIT, 1 ug/ml"}, "[5]": {"biological_target": "T3, his-tagged human TIGIT (Acro Biosystems …)", "assay": "SPR (Carterra LSA), scFv-Fc captured, His-TIGIT analyte", "procedure": "Binding affinities of anti-TIGIT antibodies to human, cyno, and murine TIGIT were measured by Surface Plasmon Resonance (SPR) on a Carterra LSA instrument. Goat anti-human Fc antibody was amine coupled to a HC30M chip. ScFv-Fc supernatants were diluted 30-fold with HBSTE and were captured by the anti-human Fc coupled HC30M chip. A 1:2 dilution series of his-tagged human TIGIT, starting at 400 nM, was injected onto the chip for binding. A dilution series was also carried out for cyno TIGIT and murine TIGIT. Data were analyzed using the Carterra™ Kinetics software."}}, "note": "Positions count from the first letter of the chain named."}
{"binder": "B1", "values": [{"measurement": "MFI", "setting": "[1]", "result": 6110, "unit": "MFI"}, {"measurement": "Elisa OD450", "setting": "[2]", "result": 0.047, "unit": "OD450"}, {"measurement": "Elisa OD450", "setting": "[3]", "result": 1.16, "unit": "OD450"}, {"measurement": "Elisa OD450", "setting": "[4]", "result": 0.047, "unit": "OD450"}, {"measurement": "Kd", "setting": "[5]", "result": 67.3, "unit": "nM"}]}
{"binder": "B2", "values": [{"measurement": "MFI", "setting": "[1]", "result": 13700, "unit": "MFI"}, {"measurement": "Elisa OD450", "setting": "[2]", "result": 1.82, "unit": "OD450"}, {"measurement": "Elisa OD450", "setting": "[3]", "result": 1.69, "unit": "OD450"}, {"measurement": "Elisa OD450", "setting": "[4]", "result": 0.239, "unit": "OD450"}]}
{"binder": "B3", "values": [{"measurement": "MFI", "setting": "[1]", "result": 9410, "unit": "MFI"}, {"measurement": "Elisa OD450", "setting": "[2]", "result": 0.052, "unit": "OD450"}, {"measurement": "Elisa OD450", "setting": "[3]", "result": 1.76, "unit": "OD450"}, {"measurement": "Elisa OD450", "setting": "[4]", "result": 1.38, "unit": "OD450"}, {"measurement": "Kd", "setting": "[5]", "result": 0.0906, "unit": "nM"}]}
{"binder": "B4", "values": [{"measurement": "MFI", "setting": "[1]", "result": 14400, "unit": "MFI"}, {"measurement": "Elisa OD450", "setting": "[2]", "result": 1.29, "unit": "OD450"}, {"measurement": "Elisa OD450", "setting": "[3]", "result": 1.75, "unit": "OD450"}, {"measurement": "Elisa OD450", "setting": "[4]", "result": 0.987, "unit": "OD450"}]}
{"binder": "B5", "values": [{"measurement": "MFI", "setting": "[1]", "result": 4100, "unit": "MFI"}, {"measurement": "Elisa OD450", "setting": "[2]", "result": 0.052, "unit": "OD450"}, {"measurement": "Elisa OD450", "setting": "[3]", "result": 0.477, "unit": "OD450"}, {"measurement": "Elisa OD450", "setting": "[4]", "result": 0.069, "unit": "OD450"}]}
{"binder": "B6", "values": [{"measurement": "MFI", "setting": "[1]", "result": 9320, "unit": "MFI"}, {"measurement": "Elisa OD450", "setting": "[2]", "result": 0.07, "unit": "OD450"}, {"measurement": "Elisa OD450", "setting": "[3]", "result": 1.84, "unit": "OD450"}, {"measurement": "Elisa OD450", "setting": "[4]", "result": 1.32, "unit": "OD450"}, {"measurement": "Kd", "setting": "[5]", "result": 0.119, "unit": "nM"}]}
{"binder": "B7", "values": [{"measurement": "MFI", "setting": "[1]", "result": 7770, "unit": "MFI"}, {"measurement": "Elisa OD450", "setting": "[2]", "result": 0.046, "unit": "OD450"}, {"measurement": "Elisa OD450", "setting": "[3]", "result": 1.81, "unit": "OD450"}, {"measurement": "Elisa OD450", "setting": "[4]", "result": 1.32, "unit": "OD450"}, {"measurement": "Kd", "setting": "[5]", "result": 0.151, "unit": "nM"}]}
